# ± gives the standard deviation of the averaged measurements.
# B1: library; a variant is named by its letters at X, in order (parent)
# chain: MNIQIGELAKRTACPVVTIRFYEQEGLLPPPGRSRGNFRLYGEEHVERLQFIRHCRSLDMPLSXVRTLLSYRKRPDQDCGEVXMLLDEHIRQVESRIGALLELXHHXVELREACSGARPAQSCGILQXLSXCVCXTRGTTAHXSD
# What was measured:
# [1] = variants of: B1; assay: sfGFP reporter fluorescence (15 h) (µM FITC); higher = higher leak; details: library round: Round 3; ligand: none
# Protocol: (§1)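 Cell-free biosensing: 1 µL Echo-assembled CFE reactions with linear PbrR variant templates (5 nM) and pPbrR-sfGFP reporter, with 1 µM Pb, 30 µM Zn or no ligand; endpoint sfGFP fluorescence after 15 h at 30 °C calibrated as µM FITC. Round 3 ML-predicted PbrR mutants; up to 3 biological replicates.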
# [2] = variants of: B1; assay: sfGFP reporter fluorescence (15 h) (µM FITC); higher = stronger transcriptional activation; details: library round: Round 3
# Protocol: as §1
variant,measurement,setting,value
MNIQIGELAKRTACPCVTIRFYEQEGLLPPPGRSRGNFRLYGEEHVERLQFIRHCRSLDMNLSDVRTLLSYRKRPDQDCGEVNMLLDEHIRQVESRIGALLELVHHCVELREACSGARPAQSCGILQMLSDCVCDTRGTTAHPSD [DNVCMDDP V16C P61N],sfGFP reporter fluorescence,[1],0.092 ± 0.0024
same,sfGFP reporter fluorescence,[2]; ligand: 1 µM Pb,0.45 ± 0.015
same,sfGFP reporter fluorescence,[2]; ligand: 30 µM Zn,0.463 ± 0.01
MNIQIGELAKRTACPVVTIRFYEQEGLLPPPGRSRGNFRLYGEEHVERLQFIRHCRSLDMPLSDVRTLLSYRKRPDQDCGEVNMLLDEHIRQVESRIGALLELRHHLVLLREACSGARPAQSCGILQHLSCCVCDTRGTTAHLSD [DNRLHCDL E109L],sfGFP reporter fluorescence,[1],0.0447 ± 0.0052
same,sfGFP reporter fluorescence,[2]; ligand: 1 µM Pb,0.094 ± 0.0039
same,sfGFP reporter fluorescence,[2]; ligand: 30 µM Zn,0.23 ± 0.0064
MNIQIGELAKRTACPVVTIRFYEQEGLLPPPGRSRGNFRLYGEEHVERLQFIRHCRSLDMPLSDVRTLLSYRKRPDQDCGEVNMLLDEHIRQVESRIGALLELRHHLVELREACSGARPAQSCGILQGLSACVCPTRGTTAHLSD [DNRLGAPL],sfGFP reporter fluorescence,[1],0.0656 ± 0.0041
same,sfGFP reporter fluorescence,[2]; ligand: 1 µM Pb,0.262 ± 0.0096
same,sfGFP reporter fluorescence,[2]; ligand: 30 µM Zn,0.905 ± 0.11
MNIQIGELAKRTACPVVTIRFYEQEGLLPPPGRSRGNFRLFGEEHVERLQFIRHCRSLDMNLSDVRTLLSYRKRPDQDCGEVNMLLDEHIRQVESRIGALLELVHHCVELREACSGARPAQSCGILQMLSDCVCDTRGTTAHPSD [DNVCMDDP Y41F P61N],sfGFP reporter fluorescence,[1],0.828 ± 0.023
same,sfGFP reporter fluorescence,[2]; ligand: 1 µM Pb,2.98 ± 0.34
same,sfGFP reporter fluorescence,[2]; ligand: 30 µM Zn,2.92 ± 0.049
MNIQIGELAKRTACPVVTIRFYEQEGLLPPPGRSRGNFRLYGEEHVERLQFIRHCRSLDMPLSKVRTLLSYRKRPDQDCGAVNMLLDEHIRQVESRIGALLELVHHCVELREACSGARPAQSCGILQMLSDCVCDTRGTTAHPSD [KNVCMDDP E81A],sfGFP reporter fluorescence,[1],2.21 ± 0.21
same,sfGFP reporter fluorescence,[2]; ligand: 1 µM Pb,3.01 ± 0.4
same,sfGFP reporter fluorescence,[2]; ligand: 30 µM Zn,2.71 ± 0.34
MNIQIGELAKRTACPVVTIRFYEQEGLLPPPGRSRGNFRLYGEEHVERLQFIRHCRSLDLSLSKVRTLLSYRKRPDQDCGEVNMLLDEHIRQVESRIGALLELVHHCVELREACSGARPAQSCGILQGLSDCVCDTRGTTAHPSD [KNVCGDDP M60L P61S],sfGFP reporter fluorescence,[1],1.34 ± 0.11
same,sfGFP reporter fluorescence,[2]; ligand: 1 µM Pb,3.29 ± 0.12
same,sfGFP reporter fluorescence,[2]; ligand: 30 µM Zn,2.58 ± 0.36
MNIQIGELAKRTACPVVTIRFYEQEGLLPPPGRSRGNFRLYGEEHVERLQFIRHCRSLDLPLSDVRTLLSYRKRPDQDCGEVNMLLDEHIRQVESRIGALLELVHHCVELREACSGARPAQSCGILQILSDCVCDTRGTTAHASD [DNVCIDDA M60L],sfGFP reporter fluorescence,[1],0.73 ± 0.014
same,sfGFP reporter fluorescence,[2]; ligand: 1 µM Pb,2.2 ± 0.24
same,sfGFP reporter fluorescence,[2]; ligand: 30 µM Zn,2.23 ± 0.2
MNIQIGELAKRTACPVVTIRFYEQEGLLPPPGRSRGNFRLYGEEHVERLQFIRHCRSLDLPLSKVRTLLSYRKRPDQDCGAVNMLLDEHIRQVESRIGALLELVHHCVELREACSGARPAQSCGILQGLSDCVCDTRGTTAHPSD [KNVCGDDP M60L E81A],sfGFP reporter fluorescence,[1],2.61 ± 0.12
same,sfGFP reporter fluorescence,[2]; ligand: 1 µM Pb,3.41 ± 0.23
same,sfGFP reporter fluorescence,[2]; ligand: 30 µM Zn,2.76 ± 0.4
MNIQIGELAKRTACPVVTIRFYEQEGLLPPPGRSRGNFRLYGEEHVERLQFIRHCRSLDLPLSKVRTLLSYRKRPDQDCGEVNMLLDEHIRQVESRIGALLELVHHCVELREACSGARPAQSCGILQMLSDCVCDTRGTTAHPSD [KNVCMDDP M60L],sfGFP reporter fluorescence,[1],3.21 ± 0.26
same,sfGFP reporter fluorescence,[2]; ligand: 1 µM Pb,3.58 ± 0.098
same,sfGFP reporter fluorescence,[2]; ligand: 30 µM Zn,3.18 ± 0.16
MNIQIGELAKRTACPCVTIRFYEQEGLLPPPGRSRGNFRLYGEEHVERLQFIRHCRSLDMPLSKVRTLLSYRKRPDQDCGEVNMLLDEHIRQVESRIGALLELVHHCVELREACSGARPAQSCGILQMLSDCVCDTRGTTAHPSD [KNVCMDDP V16C],sfGFP reporter fluorescence,[1],1.32 ± 0.056
same,sfGFP reporter fluorescence,[2]; ligand: 1 µM Pb,3.46 ± 0.1
same,sfGFP reporter fluorescence,[2]; ligand: 30 µM Zn,3.28 ± 0.18
MNIQIGELAKRTACPVVTIRFYEQEGLLPPPGRSRGNFRLYGEEHVERLQFIRHCRSLDLPLSKVRTLLSYRKRPDQDCGEVNMLLDEHIRQVESRIGALLELVHHCVELREACSGARPAQSCGILQGLSACVCDTRGTTAHPSD [KNVCGADP M60L],sfGFP reporter fluorescence,[1],3.05 ± 0.41
same,sfGFP reporter fluorescence,[2]; ligand: 1 µM Pb,3.59 ± 0.26
same,sfGFP reporter fluorescence,[2]; ligand: 30 µM Zn,3.01 ± 0.067
MNIQIGELAKRTACPCVTIRFYEQEGLLPPPGRSRGNFRLYGEEHVERLQFIRHCRSLDMNLSKVRTLLSYRKRPDQDCGEVNMLLDEHIRQVESRIGALLELVHHCVELREACSGARPAQSCGILQMLSDCVCDTRGTTAHPSD [KNVCMDDP V16C P61N],sfGFP reporter fluorescence,[1],0.0997 ± 0.0099
same,sfGFP reporter fluorescence,[2]; ligand: 1 µM Pb,0.636 ± 0.067
same,sfGFP reporter fluorescence,[2]; ligand: 30 µM Zn,0.579 ± 0.061
MNIQIGELAKRTACPVVTIRFYEQEGLLPPPGRSRGNFRLYGEEHVERLQFIRHCRSLDLNLSKVRTLLSYRKRPDQDCGEVNMLLDEHIRQVESRIGALLELVHHCVELREACSGARPAQSCGILQMLSDCVCDTRGTTAHPSD [KNVCMDDP M60L P61N],sfGFP reporter fluorescence,[1],0.987 ± 0.13
same,sfGFP reporter fluorescence,[2]; ligand: 1 µM Pb,2.86 ± 0.2
same,sfGFP reporter fluorescence,[2]; ligand: 30 µM Zn,2.86 ± 0.26
MNIQIGELAKRTACPVVTIRFYEQEGLLPPPGRSRGNFRLYGEEHVERLQFIRHCRSLDLNLSKVRTLLSYRKRPDQDCGEVNMLLDEHIRQVESRIGALLELVHHCVELREACSGARPAQSCGILQILSDCVCDTRGTTAHPSD [KNVCIDDP M60L P61N],sfGFP reporter fluorescence,[1],0.453 ± 0.036
same,sfGFP reporter fluorescence,[2]; ligand: 1 µM Pb,1.86 ± 0.087
same,sfGFP reporter fluorescence,[2]; ligand: 30 µM Zn,2.32 ± 0.15

# Reference: the supplement of paper PMC12783771
